# Measured values as given in the Human Domainome abundance scans (Beltran et al. 2025).
# ± gives the uncertainty stated by the source.
# B1: Zinc finger MYM-type protein 6, residues 427 to 504; numbered along this chain, O95789 (parent)
# chain: KLKCQHCNHLFATKPELLFYKGKMFLFCGKNCSDEYKKKNKVVAMCDYCKLQKIIKETVRFSGVDKPFCSEVCKFLSA
# B2: Far upstream element-binding protein 3, residues 75 to 150; numbered along this chain, Q96I24 (parent)
# chain: RTVITEEFKVPDKMVGFIIGRGGEQISRIQAESGCKIQIASESSGIPERPCVLTGTPESIEQAKRLLGQIVDRCRN
# Variants of: B1
# Assay: abundance fitness (aPCA) (normalised: wild type 0, dead -1); higher = more abundant; growth selection in yeast, the domain comes from the species named
# Conditions: Homo sapiens
row,Variant,abundance fitness
1,S77C,-0.104 ± 0.22
2,S77Y,-0.09 ± 0.28
3,S77Q,-0.303 ± 0.24
4,S77L,-1.36 ± 0.4
5,S77W,-0.106 ± 0.093
6,S77V,-0.857 ± 0.24
7,S77G,0.139 ± 0.079
8,S77A,-0.129 ± 0.097
9,S77D,-0.14 ± 0.17
10,S77R,-0.394 ± 0.09
11,S77T,-1.01 ± 0.37
12,S77N,-0.434 ± 0.25
13,S77E,-0.615 ± 0.22
14,E71Y,-0.28 ± 0.19
15,E71S,-0.239 ± 0.14
16,E71V,-0.386 ± 0.11
17,E71T,0.076 ± 0.1
18,E71W,-0.634 ± 0.18
19,A78G,0.022 ± 0.18
20,A78S,-0.11 ± 0.14
21,A78D,0.891 ± 0.22
22,A78C,-0.897 ± 0.43
23,A78M,0.774 ± 0.16

row,Variant,abundance fitness
1,A78N,-0.301 ± 0.14
2,A78V,-0.292 ± 0.12
3,A78R,-0.142 ± 0.15
4,A78E,-0.067 ± 0.31
5,A78W,-0.284 ± 0.42
6,F75Q,0.096 ± 0.28
7,F75Y,-0.699 ± 0.42
8,F75S,0.48 ± 0.14
9,F75P,0.039 ± 0.12
10,F75L,0.365 ± 0.072
11,F75N,0.487 ± 0.24
12,F75A,0.488 ± 0.079
13,F75D,0.671 ± 0.11
14,F75C,0.677 ± 0.09
15,F75V,0.256 ± 0.063
16,F75I,0.02 ± 0.22
17,F75T,0.557 ± 0.096
18,F75R,0.499 ± 0.063
19,F75G,0.484 ± 0.061
20,F75K,0.533 ± 0.1
21,V72G,0.036 ± 0.073
22,V72T,0.216 ± 0.1
23,V72R,0.411 ± 0.066

row,Variant,abundance fitness
1,V72H,0.016 ± 0.33
2,V72L,0.003 ± 0.12
3,V72Q,0.562 ± 0.086
4,V72K,0.775 ± 0.19
5,V72N,0.64 ± 0.15
6,V72W,0.353 ± 0.094
7,V72S,0.239 ± 0.092
8,V72C,0.553 ± 0.2
9,V72A,0.252 ± 0.07
10,V72Y,0.757 ± 0.3
11,V72E,0.535 ± 0.073
12,C73P,-1.51 ± 0.47
13,C73W,-0.751 ± 0.21
14,C73G,-0.638 ± 0.12
15,C73V,-0.728 ± 0.26
16,C73M,-0.142 ± 0.15
17,C73E,-0.885 ± 0.18
18,C73A,-0.627 ± 0.12
19,C73I,-0.753 ± 0.29
20,C73Q,-0.944 ± 0.32
21,C73D,-0.505 ± 0.37
22,C73R,-0.863 ± 0.15
23,L76T,-0.109 ± 0.28

row,Variant,abundance fitness
1,L76W,-0.174 ± 0.11
2,L76M,0.759 ± 0.09
3,L76G,-0.052 ± 0.073
4,L76H,0.095 ± 0.32
5,L76Q,0.603 ± 0.13
6,L76Y,-0.189 ± 0.33
7,L76C,0.183 ± 0.18
8,L76P,-0.5 ± 0.35
9,L76R,0.209 ± 0.073
10,L76V,-0.581 ± 0.098
11,K74S,-0.705 ± 0.2
12,K74E,-0.39 ± 0.16
13,K74N,-0.996 ± 0.23
14,K74M,0.544 ± 0.11
15,K74R,-0.298 ± 0.12
16,K74L,-0.594 ± 0.15
17,K74V,-0.674 ± 0.14
18,K74G,-0.427 ± 0.13
19,K74F,-0.594 ± 0.49
20,K74Q,-0.123 ± 0.13
21,K74T,-0.017 ± 0.3
22,K74A,-0.025 ± 0.12

# Variants of: B2
# Assay: as above
# Conditions: Homo sapiens
row,Variant,abundance fitness
1,R1K,0.008 ± 0.055
2,R1E,-0.062 ± 0.049
3,R1T,0.028 ± 0.053
4,R1Y,-0.126 ± 0.095
5,R1C,0.032 ± 0.059
6,R1P,-0.236 ± 0.1
7,R1V,-0.043 ± 0.042
8,R1I,-0.016 ± 0.073
9,R1D,0.022 ± 0.076
10,R1S,-0.042 ± 0.041
11,R1L,-0.079 ± 0.054
12,R1A,-0.077 ± 0.046
13,R1M,0.029 ± 0.055
14,R1N,0.063 ± 0.071
15,R1W,-0.2 ± 0.037
16,R1F,-0.059 ± 0.087
17,R1G,-0.042 ± 0.027
18,R1H,-0.034 ± 0.14
19,T5C,-0.203 ± 0.073
20,T5I,-0.231 ± 0.1
21,T5E,-0.043 ± 0.04
22,T5D,-0.204 ± 0.068
23,T5F,-0.201 ± 0.073
24,T5H,-0.071 ± 0.074
25,T5G,-0.3 ± 0.028
26,T2H,-0.06 ± 0.062

row,Variant,abundance fitness
1,T2A,-0.049 ± 0.032
2,T2V,-0.035 ± 0.033
3,T2F,-0.031 ± 0.063
4,T2Q,-0.003 ± 0.042
5,T2M,-0.033 ± 0.046
6,T2D,-0.061 ± 0.053
7,T2E,0 ± 0.04
8,T2P,-0.106 ± 0.044
9,T2L,-0.05 ± 0.034
10,T2G,0 ± 0.029
11,T2Y,-0.069 ± 0.06
12,T2C,-0.114 ± 0.046
13,T2I,0.038 ± 0.058
14,T2W,-0.133 ± 0.038
15,T2K,0 ± 0.043
16,T2R,0.014 ± 0.029
17,I4R,-0.065 ± 0.026
18,I4Y,-0.006 ± 0.066
19,I4Q,-0.087 ± 0.037
20,I4W,-0.125 ± 0.033
21,I4C,-0.092 ± 0.045
22,I4G,-0.14 ± 0.026
23,I4H,-0.146 ± 0.052
24,I4L,-0.081 ± 0.03
25,I4N,-0.081 ± 0.061
26,I4T,-0.045 ± 0.041

row,Variant,abundance fitness
1,I4V,-0.047 ± 0.029
2,I4A,-0.122 ± 0.032
3,I4E,-0.059 ± 0.034
4,I4F,-0.095 ± 0.049
5,I4S,-0.141 ± 0.035
6,I4K,-0.035 ± 0.049
7,V3G,-0.166 ± 0.025
8,V3Q,-0.084 ± 0.043
9,V3R,-0.085 ± 0.027
10,V3N,0.073 ± 0.093
11,V3E,-0.029 ± 0.035
12,V3D,-0.111 ± 0.049
13,V3W,-0.106 ± 0.035
14,V3K,-0.001 ± 0.05
15,V3A,-0.064 ± 0.034
16,V3M,-0.037 ± 0.046
17,V3L,-0.007 ± 0.034
18,V3H,-0.155 ± 0.074
19,V3C,-0.081 ± 0.044
20,V3T,-0.098 ± 0.043
21,V3Y,-0.053 ± 0.069
22,V3P,-0.117 ± 0.043
23,V3F,-0.066 ± 0.065
24,V3I,0.044 ± 0.075
